From patent US20220242948A1 (CARTEXELL, published 2022) come the findings set out here.

Assay [1] deals with T1, mouse L1CAM (mL1CAM) protein fused with the Fc domain (R&D system, Cat No.5674-NC) (mouse, UniProt P11627 20-1123, limits assumed).
T1 construct: Bought protein; also called mL1CAM-Fc; antigen mL1CAM; not shown: Fc domain
Description: Octet, AR2G sensor, 3R-H8 loaded as ligand at 5 ug/ml (10 mM acetate pH 6.0), mL1CAM as analyte 0 ~ 100 nM in 1X PBS + 0.09% Tween. On the procedure:
(§1) The clone 3R-H8 showing the highest binding affinity among four types of anti-L1CAM scFv was subjected to a conversion procedure, thereby securing the whole IgG1 antibody. Through the Octet system (Forte Bio, Model No. QK384) using the purified whole IgG1 antibody, the antigen-antibody affinity was analyzed for the antigen hL1CAM (Sino biological, Cat No.10140-H08H) protein or mL1CAM (R&D, Cat No. 5674-NC) protein.
(In general: Biolayer interferometry detects binding as a change in optical thickness at a sensor tip.)

For assay [2], the target named is T1, mouse L1CAM (mL1CAM) protein fused with …. Put plainly: BLI, Octet system (Forte Bio QK384). As for the experimental part:
as §1

For assay [3], the target named is T2, human L1CAM protein (hL1CAM, Sino biological, Cat No.10140-H08H) (human, UniProt P32004 20-1120).
T2 construct: Bought protein used in the Octet assay; also called antigen hL1CAM
Put plainly: BLI, Octet system (Forte Bio QK384). As for the experimental part: as §1

Assay [4] has as its target T1, mouse L1CAM (mL1CAM) protein fused with …. Put plainly: Octet, AR2G sensor, 3R-H8 loaded as ligand at 5 ug/ml (10 mM acetate pH 6.0), mL1CAM as analyte 0 ~ 100 nM in 1X PBS + 0.09% Tween; column head kdis(1/s). As for the experimental part: as §1
Assay [5] concerns the target T2, human L1CAM protein (hL1CAM, Sino …). Description: Octet, AR2G sensor, 3R-H8 loaded as ligand at 5 ug/ml (10 mM acetate pH 5.0), hL1CAM as analyte 0 ~ 200 nM in 1X PBS + 0.09% Tween; column head kdis(1/s). As for the experimental part: as §1
Assay [6] shares this target. Description: Octet, AR2G sensor, 3R-H8 loaded as ligand at 5 ug/ml (10 mM acetate pH 5.0), hL1CAM as analyte 0 ~ 200 nM in 1X PBS + 0.09% Tween. As for the experimental part: as §1
Assay [7] concerns the target T1, mouse L1CAM (mL1CAM) protein fused with …. Description: monoclonal phage ELISA, plate coated with mL1CAM-Fc (3R clones), HRP-anti-M13, absorbance at 450 nm, cut-off 0.4. On the procedure: Specifically, the antigen mL1CAM protein was added to 96-well plates, incubated at 4° C. overnight, and then blocked with 2% MPBS at 37° C. for 2 hours. Since the antigen mL1CAM protein was fused with the Fc domain, Fc as an Fc control was also added to the 96-well plates, incubated at 4° C. overnight, and blocked with 2% MPBS at 37° C. for 2 hours. Then, the phages (up to 10¹¹ cfu) were added to the 96-well plates. After incubation at room temperature for 90 minutes, HRP-anti-M13 (Sino Biological, Cat No. 11973-MM05) was diluted in PBS to 1:5000, and added to 96-well plates. After incubation at room temperature for 1 hour, TMB substrate (Sigma, Cat No. T0440) and 2N H2504 (Merck, Cat No.100731) were sequentially added, and the absorbance (OD) at 450 nm was measured. As a result, when the absorbance (A450 nm) cut-off for the antigen mL1CAM was set to at least 0.4 for selection, one clone in the 2nd round, a total of 26 clones in the 3rd round, and a total of 9 clones in the 4th round specifically bound (positive) to the antigen mL1CAM in ELISA (FIG. 3).
On the technique in general: In an ELISA, binding on a coated surface is turned into a signal by an enzyme label.

T1 sequence (P11627 20-1123 limits assumed): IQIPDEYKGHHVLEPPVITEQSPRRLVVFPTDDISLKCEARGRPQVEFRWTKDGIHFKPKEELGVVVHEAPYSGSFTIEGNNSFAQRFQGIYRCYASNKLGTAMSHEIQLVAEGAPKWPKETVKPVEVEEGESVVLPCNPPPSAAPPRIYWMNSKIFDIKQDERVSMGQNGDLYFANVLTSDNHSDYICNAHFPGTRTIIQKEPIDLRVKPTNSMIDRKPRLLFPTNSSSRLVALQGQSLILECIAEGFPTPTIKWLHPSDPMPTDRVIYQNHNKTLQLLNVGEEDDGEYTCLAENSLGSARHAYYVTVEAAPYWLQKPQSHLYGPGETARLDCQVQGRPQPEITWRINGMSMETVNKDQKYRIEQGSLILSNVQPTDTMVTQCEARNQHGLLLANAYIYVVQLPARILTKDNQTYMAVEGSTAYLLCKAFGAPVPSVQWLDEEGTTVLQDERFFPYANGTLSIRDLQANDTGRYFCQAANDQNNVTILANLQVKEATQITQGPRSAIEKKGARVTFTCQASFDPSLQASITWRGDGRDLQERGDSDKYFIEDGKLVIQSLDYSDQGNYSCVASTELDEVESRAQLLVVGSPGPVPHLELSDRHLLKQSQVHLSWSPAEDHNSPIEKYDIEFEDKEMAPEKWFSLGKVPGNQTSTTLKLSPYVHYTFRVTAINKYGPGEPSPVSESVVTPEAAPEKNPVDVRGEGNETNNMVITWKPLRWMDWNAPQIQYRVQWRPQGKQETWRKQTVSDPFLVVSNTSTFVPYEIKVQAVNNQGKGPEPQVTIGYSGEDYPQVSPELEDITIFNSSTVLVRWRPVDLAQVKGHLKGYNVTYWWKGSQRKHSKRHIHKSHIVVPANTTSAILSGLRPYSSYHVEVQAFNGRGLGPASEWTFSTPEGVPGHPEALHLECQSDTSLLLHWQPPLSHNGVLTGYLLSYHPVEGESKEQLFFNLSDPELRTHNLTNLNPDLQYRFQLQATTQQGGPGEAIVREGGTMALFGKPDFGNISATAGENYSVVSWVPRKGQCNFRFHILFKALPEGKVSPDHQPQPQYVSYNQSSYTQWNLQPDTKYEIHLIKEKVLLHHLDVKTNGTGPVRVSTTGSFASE
T2 sequence (P32004 20-1120 limits assumed): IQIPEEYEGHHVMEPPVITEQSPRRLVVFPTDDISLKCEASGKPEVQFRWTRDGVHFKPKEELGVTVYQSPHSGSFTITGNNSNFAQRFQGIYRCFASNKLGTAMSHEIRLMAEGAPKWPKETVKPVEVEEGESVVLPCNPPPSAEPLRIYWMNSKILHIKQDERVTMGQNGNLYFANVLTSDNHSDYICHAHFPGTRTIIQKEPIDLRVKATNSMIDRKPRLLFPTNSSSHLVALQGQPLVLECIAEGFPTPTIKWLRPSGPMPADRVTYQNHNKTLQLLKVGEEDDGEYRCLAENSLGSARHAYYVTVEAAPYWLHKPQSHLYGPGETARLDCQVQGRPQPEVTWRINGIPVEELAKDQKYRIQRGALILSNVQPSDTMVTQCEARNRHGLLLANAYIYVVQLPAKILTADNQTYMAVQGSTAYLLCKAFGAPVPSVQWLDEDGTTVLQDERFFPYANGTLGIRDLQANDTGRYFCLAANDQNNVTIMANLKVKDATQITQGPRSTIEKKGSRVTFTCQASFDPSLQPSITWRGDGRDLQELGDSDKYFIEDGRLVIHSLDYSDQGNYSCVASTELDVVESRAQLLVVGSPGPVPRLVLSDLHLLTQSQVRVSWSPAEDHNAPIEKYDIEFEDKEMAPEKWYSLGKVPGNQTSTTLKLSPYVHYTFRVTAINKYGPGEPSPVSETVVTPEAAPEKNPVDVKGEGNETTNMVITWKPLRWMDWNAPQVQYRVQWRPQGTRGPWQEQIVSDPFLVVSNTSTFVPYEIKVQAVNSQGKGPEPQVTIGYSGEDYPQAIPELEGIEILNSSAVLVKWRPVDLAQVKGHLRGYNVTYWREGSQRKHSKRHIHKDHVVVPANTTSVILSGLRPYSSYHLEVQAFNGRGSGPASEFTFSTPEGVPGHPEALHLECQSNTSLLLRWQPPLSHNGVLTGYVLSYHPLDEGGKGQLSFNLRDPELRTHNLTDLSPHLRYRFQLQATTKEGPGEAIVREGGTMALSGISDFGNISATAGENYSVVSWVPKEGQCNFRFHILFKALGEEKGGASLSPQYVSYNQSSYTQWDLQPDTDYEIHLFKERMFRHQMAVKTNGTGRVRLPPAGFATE

B1: whole IgG1 antibody converted from clone 3R-H8 (antibody, V domains shown)
VH: EVQLVESGGGLVQPGGSLRLSCAASGFTFSDYAMNWVRQAPGKGLEWVSAISSTGSTIYYADSVKGRFTISRDNSKNTLYLQMNSLRAEDTAVYYCAKQSTYFYSYFDVWGQGTLVTVSS
VL: not shown
notes: also called 3R-H8 whole IgG1; mL1CAM-3R-H8 IgG1
As to B1, the kon – broadly, a measure of how fast the partners come together – in assay [1] was 462000 M⁻¹ s⁻¹; in assay [6] it was 57700 M⁻¹ s⁻¹. Besides, the Kd – broadly, the constant that tells how readily two partners part at equilibrium – in assay [2] came out at 20.5 nM; in assay [3], 4.14 nM. Further, the koff – broadly, a measure of how fast the partners let go of each other – in assay [4] is 0.00945 s⁻¹; in assay [5] it was 0.000239 s⁻¹.

B2: E7 (scFv)
scFv (VH-linker-VL): EVQLVESGGGLVQPGGSLRLSCAASGFTFSSYAMHWVRQAPGKGLEWVSAISSSGSSKYYADSVKGRFTISRDNSKNTLYLQINSLRAEDTAVYYCAKDESYGWLYAFDLWGQGTLVTVSSGGGGSGGGGSGGGGSDIQMTQSPSSLSASVGDRVTITCRASQSISNYLNWYQQKPGKAPKLLIYAASRLQSGVPSRFSGSGSGTDFTLTISSLQPEDFATYYCQQSYSFPLTFGQGTKVEIK
notes: also called mL1CAM-3R-E7; ID 4 group
As to B2, in assay [7], the binding result is listed as “binds”.

B3: G2 (scFv)
scFv (VH-linker-VL): B2 scFv (VH-linker-VL)
notes: also called mL1CAM-3R-G2; ID 4 group
As for B3, in assay [7], the binding result is “binds”.
